In paper PMC6853987, “ClpP protease activation results from the reorganization of the electrostatic interaction networks at the entrance pores” (Communications Biology, 2019):

B1: Neisseria meningitidis ClpP (NmClpP), wild type (enzyme)
chain: not shown
notes: ClpP, N. meningitidis MC58; expressed full length with N-terminal His6 tag and TEV site; also called apo-NmClpP; WT NmClpP; not shown: His6, N-terminal, cleaved; copies: 14
B2: Escherichia coli ClpP (EcClpP), wild type (enzyme)
chain: not shown
notes: ClpP protease proteolytic subunit, E. coli; Crystallised with the small molecule ACP1-06; An unexplained density extends from S111 in the structure (possible covalent modification, not identified); also called E. coli ClpP; caseinolytic protease P; copies: 14

Assays:
[1] = molecular target: the molecule itself; experiment: crystal structure; apo-NmClpP 5 mg/mL in 25 mM TrisHCl pH 7.5, 100 mM KCl; well 0.2 M potassium thiocyanate, 40% MPD, room temperature; self-association (tetradecamer)
[2] = molecular target: the molecule itself; experiment: crystal structure; EcClpP 10 mg/mL in 10 mM HEPES pH 7.5, 200 mM NaCl with 5 mM ACP1-06; well 51-63% MPD, 0.1 M sodium acetate pH 5.0, room temperature; self-association (tetradecamer)

Protein | stoichiometry N [1] | stoichiometry N [2]
B1 | 14 | 
B2 |  | 14
